For one assay, the target named is T1, Gal4^AD-Cdc4 isolates (budding yeast, UniProt P07834 1-779, limits assumed).
T1 construct: Library clones; all contained the F-box; also called Cdc4 two hybrid isolates; full length Cdc4 in the two hybrid system
T1 sequence: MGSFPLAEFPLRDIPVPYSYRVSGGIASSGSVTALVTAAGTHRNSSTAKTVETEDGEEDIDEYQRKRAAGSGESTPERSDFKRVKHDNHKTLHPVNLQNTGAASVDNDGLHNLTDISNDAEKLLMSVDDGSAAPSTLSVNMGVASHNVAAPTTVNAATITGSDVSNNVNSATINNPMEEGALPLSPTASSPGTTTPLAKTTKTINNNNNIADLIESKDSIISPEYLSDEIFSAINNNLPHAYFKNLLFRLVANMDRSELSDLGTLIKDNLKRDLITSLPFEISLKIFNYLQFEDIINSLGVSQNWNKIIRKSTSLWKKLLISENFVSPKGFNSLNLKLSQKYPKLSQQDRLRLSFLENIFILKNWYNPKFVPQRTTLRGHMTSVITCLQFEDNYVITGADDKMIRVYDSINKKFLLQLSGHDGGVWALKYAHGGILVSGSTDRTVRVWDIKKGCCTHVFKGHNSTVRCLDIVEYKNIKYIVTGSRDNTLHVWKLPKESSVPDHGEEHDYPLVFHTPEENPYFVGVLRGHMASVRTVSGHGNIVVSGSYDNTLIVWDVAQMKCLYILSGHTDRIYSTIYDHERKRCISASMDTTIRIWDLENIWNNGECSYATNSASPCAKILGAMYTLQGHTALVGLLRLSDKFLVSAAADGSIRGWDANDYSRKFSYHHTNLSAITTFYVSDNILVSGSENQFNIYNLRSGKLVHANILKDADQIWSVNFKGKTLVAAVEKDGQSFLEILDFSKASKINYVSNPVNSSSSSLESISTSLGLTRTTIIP
Description: yeast two-hybrid.

For a further assay, the target named is T2, Gal4^AD-Met30 isolates (yeast, UniProt P39014 1-640, limits assumed).
T2 construct: Library clones; all contained the F-box; also called Met30 two hybrid isolates; full length Met30 in the two hybrid system
T2 sequence: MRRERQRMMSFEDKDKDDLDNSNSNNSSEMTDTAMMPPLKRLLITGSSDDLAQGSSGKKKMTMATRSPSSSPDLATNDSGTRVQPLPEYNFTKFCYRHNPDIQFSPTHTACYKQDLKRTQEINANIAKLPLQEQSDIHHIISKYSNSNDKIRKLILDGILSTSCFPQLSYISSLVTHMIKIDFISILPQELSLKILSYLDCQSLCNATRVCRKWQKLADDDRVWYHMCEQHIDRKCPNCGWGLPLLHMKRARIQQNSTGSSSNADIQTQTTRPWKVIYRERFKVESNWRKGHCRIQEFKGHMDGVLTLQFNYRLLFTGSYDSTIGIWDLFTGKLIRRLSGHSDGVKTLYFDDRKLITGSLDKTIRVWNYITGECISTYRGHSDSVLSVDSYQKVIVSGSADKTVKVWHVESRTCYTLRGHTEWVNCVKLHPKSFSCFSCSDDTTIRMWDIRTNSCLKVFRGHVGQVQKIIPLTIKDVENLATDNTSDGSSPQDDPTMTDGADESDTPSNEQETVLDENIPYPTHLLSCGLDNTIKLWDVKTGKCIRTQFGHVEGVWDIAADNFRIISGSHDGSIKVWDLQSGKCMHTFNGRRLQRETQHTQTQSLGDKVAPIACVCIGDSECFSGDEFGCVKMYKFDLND
Description: yeast two-hybrid.

A further assay deals with T3, Cdc4 (budding yeast, UniProt P07834 1-779).
T3 construct: Endogenous protein in yeast lysates, detected with anti-Cdc4 antibodies; also called endogenous Cdc4
T3 sequence: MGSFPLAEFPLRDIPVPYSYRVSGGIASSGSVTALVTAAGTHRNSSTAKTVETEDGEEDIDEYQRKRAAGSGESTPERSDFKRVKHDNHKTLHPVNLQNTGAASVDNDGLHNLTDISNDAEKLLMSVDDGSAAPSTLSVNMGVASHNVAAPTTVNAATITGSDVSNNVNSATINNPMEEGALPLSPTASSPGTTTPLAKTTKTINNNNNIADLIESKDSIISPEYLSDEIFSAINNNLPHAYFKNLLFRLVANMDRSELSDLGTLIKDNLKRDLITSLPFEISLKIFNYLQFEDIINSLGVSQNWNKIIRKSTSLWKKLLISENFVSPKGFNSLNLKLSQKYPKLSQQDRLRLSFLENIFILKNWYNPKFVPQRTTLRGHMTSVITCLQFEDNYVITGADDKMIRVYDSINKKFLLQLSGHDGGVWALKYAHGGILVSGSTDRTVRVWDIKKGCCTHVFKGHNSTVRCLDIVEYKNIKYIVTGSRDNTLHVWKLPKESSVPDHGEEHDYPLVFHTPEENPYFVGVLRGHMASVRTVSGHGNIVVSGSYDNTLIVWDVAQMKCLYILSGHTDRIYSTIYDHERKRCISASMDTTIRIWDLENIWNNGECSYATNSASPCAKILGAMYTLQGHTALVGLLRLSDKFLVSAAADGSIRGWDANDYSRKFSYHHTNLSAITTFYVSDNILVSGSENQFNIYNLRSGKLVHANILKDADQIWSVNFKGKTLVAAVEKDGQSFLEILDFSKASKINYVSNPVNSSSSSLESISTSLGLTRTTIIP
Description: anti-MYC immunoprecipitation from yeast lysate, immunoblot. In general terms: A western blot detects proteins with antibodies after separation by electrophoresis.

Another assay has as its target T4, Met30 (yeast, UniProt P39014 1-640).
T4 construct: Endogenous protein in yeast lysates, detected with anti-Met30 antibodies; also called endogenous Met30
T4 sequence: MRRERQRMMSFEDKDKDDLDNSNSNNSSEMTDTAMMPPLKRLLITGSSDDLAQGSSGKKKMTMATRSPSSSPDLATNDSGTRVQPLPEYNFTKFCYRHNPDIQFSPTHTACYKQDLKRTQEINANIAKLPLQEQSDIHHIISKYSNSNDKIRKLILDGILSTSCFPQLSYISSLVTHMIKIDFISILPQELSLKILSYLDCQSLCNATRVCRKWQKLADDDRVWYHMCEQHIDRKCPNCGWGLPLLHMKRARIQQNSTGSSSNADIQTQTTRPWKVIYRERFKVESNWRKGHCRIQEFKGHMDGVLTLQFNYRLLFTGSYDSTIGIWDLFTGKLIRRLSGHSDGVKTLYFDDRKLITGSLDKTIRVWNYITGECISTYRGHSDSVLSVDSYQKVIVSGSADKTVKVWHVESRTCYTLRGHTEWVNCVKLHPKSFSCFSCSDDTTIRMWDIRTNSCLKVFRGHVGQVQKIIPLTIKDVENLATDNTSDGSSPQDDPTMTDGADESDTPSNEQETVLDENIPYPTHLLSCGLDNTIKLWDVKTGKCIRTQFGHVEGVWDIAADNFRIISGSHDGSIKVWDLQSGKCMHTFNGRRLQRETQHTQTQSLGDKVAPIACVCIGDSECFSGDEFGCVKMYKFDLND
Described as above.

In another assay the target is T5, Grr1 (budding yeast, UniProt P24814 1-1151).
T5 construct: Endogenous protein in yeast lysates, detected with anti-Grr1 antibodies; also called endogenous Grr1
T5 sequence: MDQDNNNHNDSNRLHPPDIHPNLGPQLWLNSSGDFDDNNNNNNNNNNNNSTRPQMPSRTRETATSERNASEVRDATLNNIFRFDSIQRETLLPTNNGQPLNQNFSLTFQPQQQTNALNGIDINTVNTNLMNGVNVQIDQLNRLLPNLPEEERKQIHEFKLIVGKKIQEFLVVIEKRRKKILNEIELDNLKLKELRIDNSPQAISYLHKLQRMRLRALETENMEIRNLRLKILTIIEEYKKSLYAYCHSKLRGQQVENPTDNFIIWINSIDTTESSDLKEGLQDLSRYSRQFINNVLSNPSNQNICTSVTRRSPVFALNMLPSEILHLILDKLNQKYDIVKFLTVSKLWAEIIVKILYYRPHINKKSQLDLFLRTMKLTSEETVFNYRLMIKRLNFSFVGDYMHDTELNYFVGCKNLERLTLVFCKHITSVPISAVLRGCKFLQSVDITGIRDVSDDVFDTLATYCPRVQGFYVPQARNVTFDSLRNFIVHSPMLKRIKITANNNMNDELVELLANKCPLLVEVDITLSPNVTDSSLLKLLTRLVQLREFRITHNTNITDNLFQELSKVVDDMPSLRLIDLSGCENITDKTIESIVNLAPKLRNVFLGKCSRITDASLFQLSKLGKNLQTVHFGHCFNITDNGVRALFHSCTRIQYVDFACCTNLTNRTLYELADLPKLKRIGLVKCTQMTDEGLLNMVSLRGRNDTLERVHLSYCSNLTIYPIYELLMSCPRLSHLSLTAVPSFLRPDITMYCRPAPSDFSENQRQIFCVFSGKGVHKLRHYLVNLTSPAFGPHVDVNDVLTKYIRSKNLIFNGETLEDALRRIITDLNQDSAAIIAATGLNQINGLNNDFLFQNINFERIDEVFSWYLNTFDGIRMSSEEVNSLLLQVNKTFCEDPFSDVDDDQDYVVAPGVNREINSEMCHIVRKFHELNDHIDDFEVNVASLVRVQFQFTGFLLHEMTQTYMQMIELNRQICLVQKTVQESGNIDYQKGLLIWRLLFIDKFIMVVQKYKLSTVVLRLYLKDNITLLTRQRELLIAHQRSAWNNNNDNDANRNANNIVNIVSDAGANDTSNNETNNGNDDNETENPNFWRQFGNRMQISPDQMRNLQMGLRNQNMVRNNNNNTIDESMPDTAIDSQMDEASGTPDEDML
Described as above.

B1: Gal4^DBD-Cdc53^ΔN (other, not shown: small tags and cut ends)
chain: MALNKVLITDHIEKLENEFVVLLDARDIEKITSLYALIRRDFTLIPRMASVFENYVKKTGENEISSLLAMHKHNIMKNENANPKKLALMTAHSLSPKDYIKKLLEVHDIFSKIFNESFPDDIPLAKALDNACGAFININEFALPAGSPKSATSKTSEMLAKYSDILLKKATKPEVASDMSDEDIITIFKYLTDKDAFETHYRRLFAKRLIHGTSTSAEDEENIIQRLQAANSMEYTGKITKMFQDIRLSKILEDDFAVALKNEPDYSKAKYPDLQPFVLAENMWPFSYQEVEFKLPKELVPSHEKLKESYSQKHNGRILKWLWPLCRGELKADIGKPGRMPFNFTVTLFQMAILLLYNDADVLTLENIQEGTSLTIQHIAAAMVPFIKFKLIQQVPPGLDALVKPETQFKLSRPYKALKTNINFASGVKNDILQSLSGGGHDNHGNKLGNKRLTEDERIEKELNTERQIFLEACIVRIMKAKRNLPHTTLVNECIAQSHQRFNAKVSMVKRAIDSLIQKGYLQRGDDGESYAYLA
notes: Made by NcoI digestion and religation; also called pMT954; Cdc53 lacking the N-terminal 280 residues
Take B1: the binding result with Gal4^AD-Cdc4 isolates and with Gal4^AD-Met30 isolates was “no binding” each time.

B2: Cdc53^Δ9-280 (MYC-tagged) (other, not shown: small tags and cut ends)
chain: MSETLPRSMALNKVLITDHIEKLENEFVVLLDARDIEKITSLYALIRRDFTLIPRMASVFENYVKKTGENEISSLLAMHKHNIMKNENANPKKLALMTAHSLSPKDYIKKLLEVHDIFSKIFNESFPDDIPLAKALDNACGAFININEFALPAGSPKSATSKTSEMLAKYSDILLKKATKPEVASDMSDEDIITIFKYLTDKDAFETHYRRLFAKRLIHGTSTSAEDEENIIQRLQAANSMEYTGKITKMFQDIRLSKILEDDFAVALKNEPDYSKAKYPDLQPFVLAENMWPFSYQEVEFKLPKELVPSHEKLKESYSQKHNGRILKWLWPLCRGELKADIGKPGRMPFNFTVTLFQMAILLLYNDADVLTLENIQEGTSLTIQHIAAAMVPFIKFKLIQQVPPGLDALVKPETQFKLSRPYKALKTNINFASGVKNDILQSLSGGGHDNHGNKLGNKRLTEDERIEKELNTERQIFLEACIVRIMKAKRNLPHTTLVNECIAQSHQRFNAKVSMVKRAIDSLIQKGYLQRGDDGESYAYLA
notes: Deletion built with natural and engineered restriction sites; also called CDC53^MΔ9-280; pMT1850
Consider B2, for which the binding result with Cdc4, in the assay with Met30 and in the assay with Grr1 was “no binding” in each case.
